Results taken from paper PMC5535997 (International Journal of Molecular Sciences, 2017).

B1: VHH52.1 displayed on S. aureus RN4220 (VHH)
VHH: QLQLVESGGGLVQAGGSLRLSCAASGSTFSNYAMGWFRQAPGKEREFVASIRWIGGSTRYADSVKGRFTTSRDNAKNALYLQMNSLKTEDTAVYYCAASLGYSASYASGYDYWGQGTQVTVSS
notes: also called anti-NP-VHH6
B2: VHH54 displayed on S. aureus RN4220 (VHH)
VHH: QVQLQESGGGLVQAGGSLRLSCAASGRTLSSYAMGWFRQAPGKERELVSAISWSGLSTYYEDSVKGRFTISRDNAKNTMYLQMNSLKPEDTAIYYCAADIGWPLRADSGSWGQGTQVTVSS
notes: also called anti-NP-VHH2
B3: C8 displayed on S. aureus RN4220 (VHH)
VHH: QVHSWSLGGGLVQSGGSLTLSCAASGFTFTNAYMSWVRQGPGKEPEWVSGINARGVGTRYADFVKGRFTISRDNAKTILYLQMNSLKPEDTALYYCASDFGPSGGRWDPPRRRGQGTWVTVSS
B4: VHH54.1 displayed on S. aureus RN4220 (VHH)
VHH: QVQLVESGGGLVQAGASLRLSCATSGRTLSGYAMGWFRQAPGKERELTAAISWSGISTYYTDSVKGRFTISRDNAKNTVYLQMNSLNSEDTGVYYCVADVGWPLRADRGSWGQGTQVTISS
notes: also called anti-NP-VHH4
B5: VHH62 displayed on S. aureus RN4220 (VHH)
VHH: QVQLVESGGGLVQPGGSLRLSCAASGFTLDGYAIGWFRQAPGKEREGVSCISSSGKSTNYADSVKGRFTISRDNQQNTVYLQMNSLKPEDTAVYYCAATVGLFCVGGTYGMDYWGKGTLVKMSS
notes: also called anti-NP-VHH3
B6: D4 displayed on S. aureus RN4220 (VHH)
VHH: QLQLVETGGGLVQSGGSLRLSCAASGFTLGSYAIGWYRQAPGKERERVSCISSSGISTNYADPVKGRFTISRDNAKNTVYLQMDSLKPEDTAVYYCAADSFFCLGPNMDYWGKGTLVIVSS
notes: also called anti-NP-VHH5
B7: VHH52 displayed on S. aureus RN4220 (VHH)
VHH: QVQLQESGGGLVQAGGSLRLTCALSERTSTSYAQGWFRQPPGKEREFVASLRTHDGNTHYTDSVKGRFTISRDNAENTLYLQMNSLKTEDTAVYYCAASLGYSGAYASGYDYWGQGTQVTVSS
notes: also called anti-NP-VHH1

These binders were tested against influenza A virus nucleoprotein (NP), strain A/WSN/33, from infected MDCK cells (Influenza A virus A/WSN/1933 (H1N1), [35S]Met/Cys radiolabel) (assay: pull-down). Settings: partners not purified.
Chain of influenza A virus nucleoprotein (NP), strain A/WSN/33, from infected MDCK cells (Influenza A virus A/WSN/1933 (H1N1), [35S]Met/Cys radiolabel) (P15682 whole entry): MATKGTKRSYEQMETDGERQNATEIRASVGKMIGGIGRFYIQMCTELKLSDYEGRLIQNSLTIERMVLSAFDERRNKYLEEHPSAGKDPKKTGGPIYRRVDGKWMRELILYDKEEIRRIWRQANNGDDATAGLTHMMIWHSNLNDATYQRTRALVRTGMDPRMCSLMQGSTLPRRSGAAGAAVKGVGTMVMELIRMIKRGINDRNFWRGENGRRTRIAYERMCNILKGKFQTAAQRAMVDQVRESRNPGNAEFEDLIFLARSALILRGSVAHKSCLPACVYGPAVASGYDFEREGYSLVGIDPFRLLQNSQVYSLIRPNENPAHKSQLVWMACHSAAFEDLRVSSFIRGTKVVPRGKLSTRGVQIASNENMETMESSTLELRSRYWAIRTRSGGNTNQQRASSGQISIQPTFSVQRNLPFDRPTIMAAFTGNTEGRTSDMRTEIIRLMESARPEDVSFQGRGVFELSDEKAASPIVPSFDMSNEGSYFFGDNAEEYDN
B1: binds.
B2: binds.
B3: binds.
B4: binds.
B5: binds.
B6: binds.
B7: binds.
